The values below are quoted from earlier work in article PMC5741096.

In data set [1] the target is IL-2Rβ/IL-2Rγ (Mus musculus) (UniProt P16297).
Data set [2] deals with IL-2Rα/IL-2Rβ/IL-2Rγ (Mus musculus) (UniProt P01590).
Chain of UniProt P01590 (P01590 22-236, chain 1 of 3): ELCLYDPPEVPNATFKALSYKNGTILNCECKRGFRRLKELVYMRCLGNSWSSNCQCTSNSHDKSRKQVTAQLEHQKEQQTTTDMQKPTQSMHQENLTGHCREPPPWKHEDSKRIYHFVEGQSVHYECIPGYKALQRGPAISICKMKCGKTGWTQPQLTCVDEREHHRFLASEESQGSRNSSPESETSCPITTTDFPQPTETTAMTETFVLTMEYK
Chain of UniProt P01590 (P16297 27-240, chain 2 of 3, further chain): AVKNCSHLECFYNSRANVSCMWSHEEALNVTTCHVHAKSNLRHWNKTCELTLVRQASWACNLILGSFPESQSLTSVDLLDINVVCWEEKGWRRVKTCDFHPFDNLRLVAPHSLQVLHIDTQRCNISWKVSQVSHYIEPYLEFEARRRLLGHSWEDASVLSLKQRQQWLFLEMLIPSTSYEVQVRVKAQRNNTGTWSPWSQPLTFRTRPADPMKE
Chain of UniProt P01590 (P34902 23-263, chain 3 of 3, further chain): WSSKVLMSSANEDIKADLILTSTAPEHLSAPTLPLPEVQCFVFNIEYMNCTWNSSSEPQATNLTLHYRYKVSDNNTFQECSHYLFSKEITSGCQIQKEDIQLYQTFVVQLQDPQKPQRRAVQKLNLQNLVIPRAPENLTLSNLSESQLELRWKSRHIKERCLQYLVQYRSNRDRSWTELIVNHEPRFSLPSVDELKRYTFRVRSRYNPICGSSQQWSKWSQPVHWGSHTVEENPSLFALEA

Chain of UniProt P16297 (P16297 27-240, chain 1 of 2): as the sequence (P16297 27-240, chain 2 of 3, further chain) above
Chain of UniProt P16297 (P34902 23-263, chain 2 of 2, further chain): as the sequence (P34902 23-263, chain 3 of 3, further chain) above

One may read the Kd as a measure of binding affinity in units of concentration. Turning to IL-2 (from UniProt P04351), the equilibrium dissociation constant (Kd) in data set [1] is 1 nM; in data set [2], 0.01 nM.
